# In the supplement of paper PMC9170038:
# System: MS2 coat protein
# Assay: apparent KD of MS2 coat protein; designed switch direction (-1 OFF switch, 1 ON switch): -1; higher = weaker reporter binding
# Outline: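 Designed RNA switches with common flanks were transcribed on Illumina chips by stalled E. coli RNA polymerase and titrated with SNAP-549-labelled MS2 coat protein, from 0.7 or 1.5 nM doubling to 3 µM, in Tris-HCl pH 7.5 buffer with KCl, MgCl2, BSA, DTT, tRNA and Tween-20. Steps lasted 0.8–1.5 h (lowest) to 10–20 min (highest). Titrations ran without input, with 200 uM small-molecule ligand, or with an oligonucleotide input. Normalised cluster fluorescence was curve-fitted, and apparent KD is the per-design median over clusters.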
# [1] = input ligand: microRNA oligo, concentration not stated
# [2] = Eterna round: R95, input ligand: FMN 200 uM
# [3] = Eterna round: R95, input ligand: microRNA oligo, concentration not stated
# [4] = Eterna round: R95, input ligand: none
Sequence,apparent KD of MS2 coat protein (input ligand: FMN 200 uM),apparent KD of MS2 coat protein [1],apparent KD of MS2 coat protein (input ligand: none),apparent KD of MS2 coat protein [2],apparent KD of MS2 coat protein [3],apparent KD of MS2 coat protein [4]
"UUAGGCUGAAGAUCAAUUAAUUAACAUGAGGAUCACCCAUGUAAGGAUAUCAGCUCGUGUAGAGCUGAGAAGGUACAUGCAGCC [ExNG3/18-A3] (Eterna round: R96, puzzle: Exclusion NG 3)",436 nM,135 nM,101 nM,,,
"CCUUAUCCACAGGAUAUGCUCAUCUAAUGAUGAGCAGAAGGGUGGACAUGAGGAUCACCCAUGUUUAUCAAUGG [Omei Ex6 D3] (Eterna round: R97, puzzle: Exclusion 6)",675 nM,,1040 nM,,,
"UCUUUACAUGAGGAUCACCCAUGUGAGGAUAUGGUUUCGCUGGCCGUAGCCAGUGGAACCAGAAGGCGCAUGAU [Mat - Exclusion 1 - JL Mod - D9] (Eterna round: R97, puzzle: Exclusion 1)",51.4 nM,,27.9 nM,,,
"CGUUCGCGAGGAUAUGCAUUCGAGUCCAUUACGUGUCUGGGACUUGAGGAUCACCCAAGUAGAAGGCGCCUCAC [salish99_ex2_r4_647] (Eterna round: R97, puzzle: Exclusion 2)",131 nM,,153 nM,,,
"GGCCCUAAGGUCAGAUUCACAAGCUUUUUGCUCGUUUUAACAUGAGGAUCACCCAUGUCUAGUGGAUCUGAUCCUCA [Sensor v3, turn-off variant 2 (MOD of Indiso v.2)] (puzzle: Sensor v3, turn-off variant 2)",,,,21.6 nM,11.8 nM,20.1 nM
"UUAGCGUAAGUAAGGAUAUGCUGGUCGAAAGAUCAGCAGAAGGUACAUGAGGAUCACCCAUGUGGAUUCGUUAU [Mod of JL 11 - Jieux - Brourd's mod of Exclusion 4] (Eterna round: R97, puzzle: Brourd's mod of Exclusion 4)",73 nM,,27.5 nM,,,
"GCGCCAUCGUGAGAUGGCGUAAUUACAUGAGGAUCACCCAUGUAGGAUAUCGAUUGCUUUGCAGUCGAGAAGGGCAUGAUAAGU [JL ENG3 3.79] (Eterna round: R96, puzzle: Exclusion NG 3)",49.6 nM,34.6 nM,43.3 nM,,,
"CACCGUUACUGAGGAUAUGGUACAUGAGGAUCACCCAUGUAAUAAAUGAGAAUUUCGGAUGUAUUCCAGAAGGCAGAAAUCGGC [Ostricism 63 - Jieux - Exclusion NG 2] (Eterna round: R96, puzzle: Exclusion NG 2)",65.2 nM,40.5 nM,60.3 nM,,,
"GGUUGGCGAGGAUAUACAUGAGGAUCACCCAUGUGAGAGAAAAAAGUGAGGAAGAAAAGUAGAAGGCGCUGACG [salish99-ex3-14] (Eterna round: R96, puzzle: Exclusion 3)",354 nM,105 nM,84 nM,,,
"GUUAUGCGGCAGGAUAUCCAUCCGCGGUAUGAUGGAGAAGGGCCGACAUGAGGAUCACCCAUGUGCGUCCUAGG [jl-ex6-4.49 ViennaUCT mod] (Eterna round: R97, puzzle: Exclusion 6)",155 nM,,53 nM,,,
"GGAACGGCGAACAAGGCCCACAUGAGGAUCACCCAUGUGGCUGGGUGAUCUCGCUCGUCUUAUAUAUGGCUGGACCG [salish99-s2-off-006] (Eterna round: R96, puzzle: Sensor v2, turn-off variant)",146 nM,23.8 nM,104 nM,,,
GUGGAGUAAGGAUAUACAUGAGGAUCACCCAUGUGAGGGUAUGUGAUGGGAGUAGGUUGUAGAAGGUACGAGGA [JR_Exclu3_Sub068] (puzzle: Exclusion 3),,,,,160 nM,
"AGCCAUCUUGUGAGGAUAUGCCCUGGUCAAAGCCGGUAGAAGGUACAUGAGGAUCACCCAUGUGAACUAAUCUA [Eternabot (L1) Solution 90] (Eterna round: R97, puzzle: Brourd's mod of Exclusion 4)",14.1 nM,,16.2 nM,,,
AGAUGGCGAGGAUAUACAUGAGGAUCACCCAUGUGAAUAAGAAGAGUGAGGAAGAAAAGUAGAAGGCGCUGUCA [Mat - Exclusion 3 - Mod of Salish D31] (puzzle: Exclusion 3),,,,128 nM,64.6 nM,99.8 nM
"AAGCUGUGAGGAUAUACAUGAGGAUCACCCAUGUUAAGGAAGUCUUGGUUAAUUUGGUGUAGAAGGCGCUUAUU [JR_Ex3_Sub018] (Eterna round: R97, puzzle: Exclusion 3)",32.6 nM,,32.4 nM,,,
"AACAAACAUGAGGAUCACCCAUGUCAGGAUAUGCACAAACAAACAAACAAACAAGCAAGCAGAAGGGACACAAC [Amethyst 89] (Eterna round: R96, puzzle: Exclusion 1)",34.7 nM,22.4 nM,24.8 nM,,,
"UUAAUUAAUGUGAGGAUAUCUAGAGCUGCGGCUCUAGAGAAGGCACAUGAGGAUCACCCAUGUCUCAAUUAAUU [BmEx4/2-E3] (Eterna round: R97, puzzle: Brourd's mod of Exclusion 4)",21.6 nM,,14.7 nM,,,
"GAUUGAUAAGGAUAUACAUGAGGAUCACCCAUGUGCUUCAGCUAGGAGACUAGCAUUGGUAGAAGGUAUUAAUC [Mod of lroppy 12 - Jieux - Exclusion 3] (Eterna round: R97, puzzle: Exclusion 3)",51.8 nM,,21.8 nM,,,
"CCUCGACAUGAGGAUCACCCAUGUAAGGAUAUAAGUGCAGAGGGCGCGUAAUUAAUCGUGAGAAGGUACAACAC (Eterna round: R97, puzzle: Exclusion 1)",32.1 nM,,31.1 nM,,,
"AUAGGCUUUUAUAUCCUUAACAUGAGGAUCACCCAUGUUCGUCUUAUGAUGGUCUGAUCCCUGAGGAUCGGACCGUU [JL-sv1-2.05 Brourd Mod] (puzzle: Sensor v3, turn-off variant 1)",,,,32.3 nM,134 nM,35.4 nM
"CACAAGCUUUUUUGAUGCAUUUUAGUUGGUGUGCUUUUUACAUGAGGAUCACCCAUGUUUAUGAAGCUCGAUCUUUU [JR_SV3TOV2_Sub080] (puzzle: Sensor v3, turn-off variant 2)",,,,14 nM,15 nM,12.8 nM
GAAAAGGUAGGAUAUACGAAAAAAAAGGGUAGAAAAAAAGCACAUGAGGAUCACCCAUGUAGAAGGACCAAAAG [salish99_ex2_r3_018] (puzzle: Exclusion 2),,,,137 nM,32.5 nM,33.5 nM
AAGAAACAUGAGGAUCACCCAUGUGAGGAUAUGAAAAAGAAAAGAAAAGAAAGAAGGCUCAGAAGGCACAAAGG [salish99-ex1_r3_029] (puzzle: Exclusion 1),,,,30.5 nM,24.1 nM,28.6 nM
"AUAAUGUCAGGAUAUCAGUCGUACAGCGAUAGCUGUACGACUGAGAAGGGACAUGAGGAUCACCCAUGUGGUUA [E4/7-A4] (Eterna round: R97, puzzle: Exclusion 4)",169 nM,,1910 nM,,,
